Data: US10247735B2, “Compositions and methods for regulating glucose metabolism” (The J. David Gladstone Institutes, priority 2011, dated 2019)

T1: p75^NTR ICD (Homo sapiens, UniProt P08138)
T1 construct: peptide array data of Rab31 peptides with p75^NTR intracellular domain (ICD)
T1 sequence (P08138 273-427 limits assumed): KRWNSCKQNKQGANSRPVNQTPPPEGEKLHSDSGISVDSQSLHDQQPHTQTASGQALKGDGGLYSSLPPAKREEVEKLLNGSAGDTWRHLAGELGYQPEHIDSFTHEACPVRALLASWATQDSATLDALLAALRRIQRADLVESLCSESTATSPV

T2: Rab31 (Homo sapiens, UniProt Q13636)
T2 sequence (Q13636 1-195): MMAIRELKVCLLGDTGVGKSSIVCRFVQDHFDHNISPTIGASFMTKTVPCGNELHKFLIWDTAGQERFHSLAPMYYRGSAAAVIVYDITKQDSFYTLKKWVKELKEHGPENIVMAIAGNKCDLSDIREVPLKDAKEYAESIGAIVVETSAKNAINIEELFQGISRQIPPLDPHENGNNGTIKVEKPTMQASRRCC


How the values were obtained:
p75^NTR ICD = target: T1, p75^NTR ICD; assay: Peptide array of Rab31 peptides with GST-p75^NTR ICD; format: binding; settings: peptide array of overlapping Rab31 peptides, 1 μg/ml GST-p75^NTR ICD
Procedure: Peptide arrays were manufactured by Kinexus Bioinformatics Corporation (Vancouver, Canada). Synthetic overlapping peptides (25 amino acids in length) for Rab31 were spotted on nitrocellulose membranes. Membranes were overlaid with 1 μg/ml recombinant GST-p75^NTR ICD. Bound recombinant GST-p75ICD were detected using rabbit anti-p75^NTR (1:1000, Millipore) followed by secondary anti-rabbit horseradish peroxidase antibody (1:5000, Cell Signaling).

Rab31 = target: T2, Rab31; assay: Peptide array mapping of p75ICD peptides with GST-Rab31; format: binding; settings: peptide array of overlapping p75ICD peptides, 1 μg/ml GST-Rab31
Procedure: (§1) Peptide arrays were manufactured by Kinexus Bioinformatics Corporation (Vancouver, Canada). Synthetic overlapping peptides (25 amino acids in length) for p75ICD were spotted on nitrocellulose membranes. Membranes were overlaid with 1 μg/ml recombinant GST-Rab31, GST-Rab5 and p75^NTR ICD. Bound recombinant GST-Rab31 and GST-Rab5 were detected using rabbit anti-GST (1:1000, Cell Signaling) and bound recombinant p75ICD was detected using rabbit anti-p75^NTR (1:1000, Millipore) followed by secondary anti-rabbit horseradish peroxidase antibody (1:5000, Cell Signaling).

Rab5 = assay: Peptide array mapping of p75ICD peptides with GST-Rab5; format: binding; settings: peptide array of overlapping p75ICD peptides, 1 μg/ml GST-Rab5
Procedure: as §1

3T3L1 adipocytes = assay: Glucose uptake assay in 3T3L1 adipocytes; format: cell-based, mouse; settings: for glucose uptake: addition of neurotrophin ligand, 100 ng/ml NGF or 50 ng/ml BDNF; for basal and insulin-stimulated glucose uptake: neurotrophin treatment for 1 h before insulin stimulation
Procedure: 3T3L1 cells were maintained in DMEM containing 10% bovine serum. All media were supplemented with 1% penicillin/streptomycin (Invitrogen). Mouse embryonic fibroblasts (MEFs) were isolated from wild-type (WT) and p75^NTR−/− embryos as described (5). Briefly, heads and internal organs were removed from E12-14 embryos, and the remaining embryo was minced with scissors. Ten ml of ice cold phosphate-buffered saline (PBS) was added and minced embryos were centrifuged for 5 minutes at 500×g. Each embryo was resuspended in 7.5 ml Trypsin-EDTA for 20 minutes at 37° C. with occasional shaking. After trypsin deactivation by 7.5 ml DMEM with 10% FBS the suspension was poured through a 70 μm filter and cells were cultured in DMEM with 10% fetal bovine serum (FBS). Differentiation of 3T3L1 cells and MEFs was performed as described (6). Briefly, differentiation was induced by incubating confluent monolayers for 3 days in DMEM containing 10% fetal bovine serum (FBS), 0.5 mM 3-isobutyl-1-methylxanthine, 0.4 μg/ml dexamethasone, and 1 μg/ml of insulin. Medium was replaced every 2 days with DMEM containing 10% FBS. After 8-12 days, 75% of the cells expressed the adipocyte phenotype as assessed by Oil Red O. Isolation of primary adipocytes from epididymal fat pads was performed as described (7). Briefly, fat pads were minced in Krebs-Ringer Bicarbonate-Hepes (KRBH) buffer, pH 7.4, treated with collagenase (Invitrogen) for 40 min, filtered through a nylon strainer and centrifuged at 400×g for 1 minute. Fully-differentiated adipocytes were transfected by electroporation using Amaxa Cell Line Nucleofector kit L (Lonza) following manufacturer's instructions. For p75^NTR knockdown experiments, 3T3L1 cells were differentiated for 6-8 days and infected with lentivirus encoding a short hairpin shRNA for mouse p75^NTR (8) and L6 myocytes were transfected with siGENOME SMART pool for rat p75^NTR (Thermo Scientific).
Fully differentiated 3T3L1 adipocytes and eight day differentiated WT and p75^NTR−/− MEFs were serum-starved for 3 hrs in DMEM and then equilibrated in Hepes/Salt (H/S) buffer for 30 min prior to treatment with 100 nM insulin for 30 min at 37° C. Thirty min after the addition of insulin, [^3H]-2-deoxyglucose (Amersham) and 2 mM 2-deoxyglucose (Sigma) in H/S buffer was added. After incubation at 37° C. for 10 min, the reactions were terminated by washing twice with ice-cold PBS. Cells were lysed in 1 M NaOH for 30 min at room temperature. An equal volume of 1 M HCl was added and incorporated radioactivity was measured by liquid scintillation counting. […] The fat cells were isolated and the level of radioactivity was counted. […]

Row | Molecule | binding to p75^NTR ICD (p75^NTR ICD) | interaction with Rab31-GST (Rab31) | interaction with Rab5-GST (Rab5) | glucose uptake (3T3L1 adipocytes) | basal and insulin-stimulated glucose uptake (3T3L1 adipocytes)
1 | EHGPENIVMAIAGNK [Peptide 6] | binds |  |  |  | 
2 | LLASWATQDSATLDA [peptide 7, p75^NTR ICD death-domain peptide, aa 386-400, helix 4 and region between helixes 4 and 5] |  | strongest interactions | strongest interactions |  | 
3 | NGF: p75^NTR neurotrophin ligand, nerve growth factor (Peprotech) |  |  |  | did not affect | No statistically significant differences
4 | BDNF: p75^NTR neurotrophin ligand, brain-derived neurotrophic factor (Peprotech) (protein, UniProt P23560 19-247, looked up) Neurotrophic factor BDNF …: APMKEANIRGQGGLAYPGVRTHGTLESVNGPKAGSRGLTSLADTFEHVIEELLDEDQKVRPNEENNKDADLYTSRVMLSSQVPLEPPLLFLLEEYKNYLDAANMSMRVRRHSDPARRGELSVCDSISEWVTAADKKTAVDMSGGTVTVLEKVPVSKGQLKQYFYETKCNPMGYTKEGCRGIDKRHWNSQCRTTQSYVRALTMDSKKRIGWRFIRIDTSCVCTLTIKRGR |  |  |  | did not affect | No statistically significant differences
